The record followed here is article PMC5662623.

Assay [1] has as its target adaptor protein AP-1. The assay is described as follows: GST pull-down from rat brain lysate, immunoblot band intensity quantification (anti-adaptin γ). Conditions: at least three independent experiments; parent: est. 1.0; read off a plot. (Immunoblotting shows a protein as a band on a membrane.)
Assay [2] deals with adaptor protein AP-3. The assay is described as follows: GST pull-down from rat brain lysate, immunoblot band intensity quantification (anti-β-NAP). The conditions noted are these: at least three independent experiments; parent: est. 1.0; read off a plot.

Turning to “GST fusion of the WT VGLUT2 C-terminus F518G; I519G”, the values for the ratio to parent in assay [1] and in assay [2] were 0.59 and 0.33, respectively.
